Source: publication PMC12216052 (Nature Communications, 2025)

Target: T1, Notch1(EGF1-36) (amino acids 20-1426) (human, UniProt P46531 20-1426, biotin, chemically at the N-terminus (EZ-Link Sulfo-NHS-Biotin))
T1 construct: NOTCH1, human, EGF1-36, amino acids 20-1426; also called NOTCH1 ECD; source: Tni insect cells (baculovirus), purified (nickel chromatography with 1 mM calcium, SEC), chemically biotinylated
Assay: SPR; ~300 RU biotinylated NOTCH1(EGF1-36) on a streptavidin chip; DLL4(N-5) or DLK1 ECD as analyte; HBS-P20-BSA with 1 mM CaCl2; reference: ZNRF3 ECD
Conditions: both partners purified

B1: Human DLL4 (N-EGF5, amino acids 27-400) (domain or fragment, UniProt Q9NR61 27-400, looked up)
chain: SGVFQLQLQEFINERGVLASGRPCEPGCRTFFRVCLKHFQAVVSPGPCTFGTVSTPVLGTNSFAVRDDSSGGGRNPLQLPFNFTWPGTFSLIIEAWHAPGDDLRPEALPPDALISKIAIQGSLAVGQNWLLDEQTSTLTRLRYSYRVICSDNYYGDNCSRLCKKRNDHFGHYVCQPDGNLSCLPGWTGEYCQQPICLSGCHEQNGYCSKPAECLCRPGWQGRLCNECIPHNGCRHGTCSTPWQCTCDEGWGGLFCDQDLNYCTHHSPCKNGATCSNSGQRSYTCTCRPGYTGVDCELELSECDSNPCRNGGSCKDQEDGYHCLCPPGYYGLHCEHSTLSCADSPCFNGGSCRERNQGANYACECPPNFTGSNCE
notes: Delta-like 4 (DLL4), human, N-EGF5, amino acids 27-400; also called DLL4(N-5); source: Tni insect cells (baculovirus), purified (nickel chromatography, SEC)
  binding result: binds
